Molecular target: synthetic peptide …[pT]ISDSAPSR (human)
Assay: bead array incubated with the synthetic peptide in digested BSA; bound peptide by MS, peptide left in the sample by dot blot

Chain of synthetic peptide …[pT]ISDSAPSR (human) (peptide, as listed by the source): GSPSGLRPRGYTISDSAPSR

- binding capacity of a bead array of 5 identical reactive sites, each with 5% of the #3617 antibody: < 15 % of 1 pmol
Substance: Rabbit monoclonal antibody recognizing phosphorylated Thr1462 in human Tuberin (TSC2), Cell Signaling Technology catalog number 3617 (5B12)
